From patent US20190055314A1 (ADAGENE, published 2019) come the findings set out here.

Usually Kd stands for the equilibrium constant for the complex coming apart.

The target of one test is T1, CD95.
T1 chain: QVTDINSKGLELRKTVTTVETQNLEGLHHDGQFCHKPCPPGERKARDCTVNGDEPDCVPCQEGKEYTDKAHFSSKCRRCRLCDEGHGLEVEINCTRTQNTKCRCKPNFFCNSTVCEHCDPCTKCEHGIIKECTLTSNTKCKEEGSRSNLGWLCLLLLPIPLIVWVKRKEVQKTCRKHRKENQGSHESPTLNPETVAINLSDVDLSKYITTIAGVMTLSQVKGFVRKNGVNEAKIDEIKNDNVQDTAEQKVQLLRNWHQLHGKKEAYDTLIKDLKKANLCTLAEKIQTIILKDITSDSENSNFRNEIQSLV
As to the kind of experiment: flow cytometry, HEK293F cells expressing the receptor [Cont.].

The target in the next test is T2, CD120a.
T2 chain: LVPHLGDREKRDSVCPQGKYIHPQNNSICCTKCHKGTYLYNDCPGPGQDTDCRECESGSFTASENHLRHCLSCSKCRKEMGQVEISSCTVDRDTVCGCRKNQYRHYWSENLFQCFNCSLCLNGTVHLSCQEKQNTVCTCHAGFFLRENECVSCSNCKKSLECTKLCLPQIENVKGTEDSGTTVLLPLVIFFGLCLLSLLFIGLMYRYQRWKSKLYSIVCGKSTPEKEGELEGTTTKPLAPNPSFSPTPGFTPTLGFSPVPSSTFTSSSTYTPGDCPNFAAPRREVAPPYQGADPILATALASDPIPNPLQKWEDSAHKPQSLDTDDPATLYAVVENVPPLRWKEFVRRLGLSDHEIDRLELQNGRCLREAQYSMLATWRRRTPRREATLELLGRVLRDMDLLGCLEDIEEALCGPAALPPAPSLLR
The test is described as above.

Test [1] deals with T3, GITR overexpressed on HEK293F cells (UniProt Q9Y5U5 26-241, limits assumed).
T3 construct: whole, on cells
T3 sequence (looked up): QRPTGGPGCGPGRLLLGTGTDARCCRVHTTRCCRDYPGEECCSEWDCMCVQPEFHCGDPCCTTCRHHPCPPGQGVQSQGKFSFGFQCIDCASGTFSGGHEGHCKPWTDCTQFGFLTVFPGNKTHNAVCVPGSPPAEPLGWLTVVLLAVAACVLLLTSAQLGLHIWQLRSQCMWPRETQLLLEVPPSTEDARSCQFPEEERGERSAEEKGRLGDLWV
The description is as above.

The target of test [2] is T4, CD40 overexpressed on HEK293F cells (UniProt P25942 21-277, limits assumed).
T4 construct: whole, on cells
T4 sequence (P25942 21-277 limits assumed): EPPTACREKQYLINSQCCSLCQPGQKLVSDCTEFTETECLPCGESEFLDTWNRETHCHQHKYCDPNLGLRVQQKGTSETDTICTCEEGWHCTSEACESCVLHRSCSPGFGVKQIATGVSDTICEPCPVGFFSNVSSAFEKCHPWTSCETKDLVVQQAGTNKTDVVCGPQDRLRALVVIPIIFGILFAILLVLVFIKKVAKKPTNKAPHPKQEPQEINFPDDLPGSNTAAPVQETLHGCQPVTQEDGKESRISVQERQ
The test is described as above.

Test [3] addresses T5, OX40 overexpressed on HEK293F cells (UniProt P43489 29-277, limits assumed).
T5 construct: whole, on cells
T5 sequence (looked up): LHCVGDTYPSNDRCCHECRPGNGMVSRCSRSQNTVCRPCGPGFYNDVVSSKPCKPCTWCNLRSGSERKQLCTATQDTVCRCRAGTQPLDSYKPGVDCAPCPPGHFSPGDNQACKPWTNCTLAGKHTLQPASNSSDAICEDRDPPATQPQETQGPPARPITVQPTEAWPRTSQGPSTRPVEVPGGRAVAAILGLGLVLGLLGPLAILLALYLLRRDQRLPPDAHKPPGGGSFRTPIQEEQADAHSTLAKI
The description is as above.

For test [4], the target named is T6, CD27 overexpressed on HEK293F cells (UniProt P26842 20-260, limits assumed).
T6 construct: whole, on cells
T6 sequence (looked up): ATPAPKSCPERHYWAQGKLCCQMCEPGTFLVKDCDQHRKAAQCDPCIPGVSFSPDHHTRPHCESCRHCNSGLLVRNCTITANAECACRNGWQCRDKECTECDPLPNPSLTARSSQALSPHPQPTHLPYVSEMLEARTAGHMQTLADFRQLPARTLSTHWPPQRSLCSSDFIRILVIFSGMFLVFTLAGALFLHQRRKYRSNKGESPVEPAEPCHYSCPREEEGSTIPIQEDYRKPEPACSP
Described as above.

For test [5], the target named is T7, mouse CD137 fused with human FC fragment (mouse, UniProt P20334 24-178, limits assumed).
T7 construct: also called mouse CD137-Fc; not shown: human Fc fragment
T7 sequence: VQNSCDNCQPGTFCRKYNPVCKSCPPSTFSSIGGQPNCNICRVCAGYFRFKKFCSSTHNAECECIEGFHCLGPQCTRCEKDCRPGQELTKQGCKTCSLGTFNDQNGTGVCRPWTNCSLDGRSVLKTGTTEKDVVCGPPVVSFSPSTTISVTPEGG
As to the kind of experiment: ELISA, CD137-Fc coated in serial dilution, IgG 5 µg/mL, protein L-HRP.

For test [6], the target named is T8, rat CD137 on the cell surface (rat, UniProt Q4W8J3 24-258).
T8 sequence: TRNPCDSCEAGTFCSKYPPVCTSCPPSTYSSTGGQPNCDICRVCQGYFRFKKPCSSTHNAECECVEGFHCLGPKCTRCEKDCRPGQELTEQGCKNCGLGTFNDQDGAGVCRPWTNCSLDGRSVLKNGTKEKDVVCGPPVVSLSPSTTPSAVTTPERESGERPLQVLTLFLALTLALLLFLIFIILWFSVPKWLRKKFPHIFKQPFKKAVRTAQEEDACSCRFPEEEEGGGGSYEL
As to the kind of experiment: flow cytometry, HEK293F cells expressing CD137 [Cont.].

In test [7] the target is T9, full-length monkey CD137 on the cell surface (cynomolgus monkey, UniProt Q07011 24-179 (human entry)).
T9 chain: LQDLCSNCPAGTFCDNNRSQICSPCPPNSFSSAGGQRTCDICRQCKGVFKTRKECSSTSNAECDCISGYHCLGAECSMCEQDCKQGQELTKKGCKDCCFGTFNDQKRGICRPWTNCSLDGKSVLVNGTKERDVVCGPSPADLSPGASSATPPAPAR
As to the kind of experiment: flow cytometry, HEK293F cells expressing CD137 or mutant [Cont.]. (In general: A flow cytometer gives signals particle by particle.)

In test [8] the target is T10, mouse CD137 protein (Biacore) (mouse, UniProt P20334 24-178, limits assumed).
T10 construct: Construct used as SPR analyte not described
T10 sequence: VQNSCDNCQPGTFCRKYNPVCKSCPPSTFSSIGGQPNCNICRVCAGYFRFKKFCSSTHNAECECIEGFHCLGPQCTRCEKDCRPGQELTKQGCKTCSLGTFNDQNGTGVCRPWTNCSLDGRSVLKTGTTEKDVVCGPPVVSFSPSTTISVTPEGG
As to the kind of experiment: SPR Biacore.

Test [9] has as its target T11, full-length mouse CD137 on the cell surface (mouse, UniProt P20334 24-178).
T11 sequence: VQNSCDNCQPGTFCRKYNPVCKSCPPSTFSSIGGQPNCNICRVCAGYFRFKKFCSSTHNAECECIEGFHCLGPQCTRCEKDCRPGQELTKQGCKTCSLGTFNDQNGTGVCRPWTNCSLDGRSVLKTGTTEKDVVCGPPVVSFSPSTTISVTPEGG
Put plainly: flow cytometry, HEK293F.

For test [10], the target named is T5, OX40 overexpressed on HEK293F cells. Put plainly: flow cytometry, HEK293F cells expressing the receptor.

B1: AG10059 (antibody, human IgG4 S228P, kappa, V domains shown)
VH: EVQLVESGGGLVQPGGSLRLSCAASGYSITSGHYWAWIRQAPGKGLEWVSSISGYGSTTYYADSVKGRFTISRDNSKNTLYLQLNSLRAEDTAVYYCARGGSDAVLGDWFAYWGQGTLVTVSS
VL: DIQLTQSPSSLSASVGDRVTITCRASQGIGSFLAWYQQKPGKAPKLLIYDASNLETGVPSRFSGSGSGTDFTLTISSLQPEDFATYYCQQGYYLWTFGQGTKVEIKR
Take B1: the binding result (with CD95; with CD120a; in test [1]; in test [2]; in test [3]; in test [4]) was “no binding (tested: 100 nM (text paragraph 226))” each time. Moreover, the results for the binding result in [5], in test [6] and in [8] were “no binding”, “no binding (tested: 100 nM (text paragraph 220))” and “no binding”, respectively. In addition, the “% in upper right quadrant” value in test [7] was found to be 42.4%.

B2: AG10058 (antibody, human IgG4 S228P, kappa, V domains shown)
VH: EVQLVESGGGLVQPGGSLRLSCAASGFSLSTSGVGVGWIRQAPGKGLEWLALIDWDDDKYYSPSLKSRLTISRDNSKNTLYLQLNSLRAEDTAVYYCARGGSDTVLGDWFAYWGQGTLVTVSS
VL: DIQLTQSPSSLSASVGDRVTITCRASQSVSPYLAWYQQKPGKAPKLLIYDASSLESGVPSRFSGSGSGTDFTLTISSLQPEDFATYYCQQGYSLWTFGQGTKVEIKR
In the case of B2, the Kd in test [9] is 10.1 nM. Also, the binding result in test [10] is on record as “no binding (tested: 100 nM (text paragraph 226))”.
